Experimental findings from PMC11665613 are described below.

In the assay the target is MPP8 (M-phase phosphoprotein 8) (UniProt Q99549). The assay is described as follows: cross-linking; photo-crosslinking under UV-B irradiation of recombinant reader (3 or 10 uM CBX1, 5 uM BPTF, 3 uM MPP8) with sulfonium peptide (100 uM or various concentrations), 3 to 20 min; conjugates quantified by HR-MS.

Some results are limits rather than exact numbers.

Sequence of MPP8 (M-phase phosphoprotein 8) (Q99549 whole entry): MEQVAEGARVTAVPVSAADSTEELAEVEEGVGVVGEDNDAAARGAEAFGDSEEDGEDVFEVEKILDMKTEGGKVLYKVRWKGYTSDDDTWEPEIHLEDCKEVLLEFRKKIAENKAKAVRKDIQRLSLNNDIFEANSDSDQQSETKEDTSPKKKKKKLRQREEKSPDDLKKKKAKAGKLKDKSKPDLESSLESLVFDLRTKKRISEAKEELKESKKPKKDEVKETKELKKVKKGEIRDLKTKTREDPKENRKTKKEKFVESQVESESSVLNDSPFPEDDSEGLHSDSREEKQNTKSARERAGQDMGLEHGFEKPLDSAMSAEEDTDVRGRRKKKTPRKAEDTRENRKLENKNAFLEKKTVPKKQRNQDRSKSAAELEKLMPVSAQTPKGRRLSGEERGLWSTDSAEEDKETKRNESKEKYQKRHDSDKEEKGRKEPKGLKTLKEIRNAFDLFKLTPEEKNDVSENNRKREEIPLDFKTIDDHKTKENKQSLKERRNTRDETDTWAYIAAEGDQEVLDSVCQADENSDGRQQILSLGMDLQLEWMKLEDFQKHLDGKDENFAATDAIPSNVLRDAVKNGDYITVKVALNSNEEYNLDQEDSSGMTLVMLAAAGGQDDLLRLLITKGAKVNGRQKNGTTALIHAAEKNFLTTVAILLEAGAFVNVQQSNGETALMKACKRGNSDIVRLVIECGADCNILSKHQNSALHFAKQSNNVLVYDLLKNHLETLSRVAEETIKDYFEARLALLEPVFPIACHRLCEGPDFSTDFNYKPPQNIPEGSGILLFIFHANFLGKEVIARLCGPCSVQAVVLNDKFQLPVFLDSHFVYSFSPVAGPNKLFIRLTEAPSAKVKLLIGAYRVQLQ

For the substance “H3K9NleCTMS peptide (histone H3 peptide, cysteine at position 9 alkylated to cyclic tetramethylene sulfonium)”, the fold increase of the peptidyl conjugate yield against H3K9NleS+me2 was above 3 fold.
